± gives the uncertainty stated by the source.
Experiment: amyloid nucleation score (Sup35N fusion, yeast selection) (log enrichment); library NNK1; higher = more nucleation; inactive = no reads after selection
Summary of the method: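 Libraries of peptides of 20 random codons fused to Sup35N were expressed in psi-negative yeast and induced 24 hours with 100 μM copper sulfate. Selection was 7 days at 30°C on medium lacking adenine and uracil, and plasmid inserts were Illumina-sequenced before and after selection. Nucleation score is the DiMSum log enrichment of output over input reads, centred on the mode score of non-aggregating sequences, and sequences with under 100 input reads were left out.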

| Substance | amyloid nucleation score |
| --- | --- |
| AVQFCCWDMRTVIAS | 5.76 ± 0.066 |
| AVRGINCCKRQSWKCNLCM | 0.915 ± 0.56 |
| AVRWLHIGWSKETGRNCDCR | 0.671 ± 0.64 |
| AVTCSPPGPMQGLTFLFMAL | -1.11 ± 1 |
| AVVKAVVNGRILFYRTREVS | 0.226 ± 0.58 |
| AVVLLLNRTD | 0.282 ± 0.59 |
| AVYAAYFWGSI | -0.065 ± 0.69 |
| AVYICPYLQSGNALATDMW | 0.587 ± 1.1 |
| AWDVAS | 0.967 ± 0.6 |
| AWNTGSIARHSFSRIVSTCD | 0.182 ± 0.39 |
| AWRIIPGILAFTFEEM | -0.428 ± 0.79 |
| AYLNREFGFLFTLNFGCGFF | -0.636 ± 0.39 |
| AYLVFDGQ | -0.283 ± 0.37 |
| AYSCDLVELRVCAVSVWEEW | 1.42 ± 0.41 |
| AYTLRYTFRYKYWLRYRLAG | 0.861 ± 0.58 |
| CAQRPAVRSF | -0.075 ± 0.98 |
| CASMMPDSVSVRTKSNVT | -1.02 ± 1.3 |
| CAVLLVIGTAANEMCARRLI | -0.197 ± 1.9 |
| CAVTDVRIIIHF | 2.15 ± 0.22 |
| CCCISDHESNCDSDQSRLGF | 0.585 ± 0.36 |
| CCDDIRTQDLALRAQIP | -0.21 ± 0.32 |
| CCFMYAQIDLLNFSMDVLAR | 0.198 ± 0.29 |
| CCHYDHKSGVNSLRRKTNVW | 1.57 ± 0.43 |
| CCLEWRWLRMEDDPVNGEDV | -0.073 ± 0.43 |

| Substance | amyloid nucleation score |
| --- | --- |
| CCYDPNGLAKNKTW | -0.013 ± 0.65 |
| CDMNPSDYDPLCEVSHRIIS | 0.561 ± 0.24 |
| CDPGVKYSVSKAYRGWEYAL | -0.042 ± 1.2 |
| CDVVVSSF | -0.117 ± 0.88 |
| CDYLNGLKGYSP | -0.19 ± 0.35 |
| CECHPFHPRVLVYGRYRFNP | 0.033 ± 0.38 |
| CELPGLGVLLVGGKPMEWLN | inactive |
| CELPTRLF | -0.143 ± 0.33 |
| CESGW | -0.115 ± 1.2 |
| CFFPVSPFFIIRGKIQIFYL | -2.51 ± 2.7 |
| CFLETMDFGH | -0.472 ± 1.2 |
| CFNVSVSGEDSFLFGYGWHI | 0.159 ± 0.66 |
| CFPFIFRIGFTNNGADSLVK | -0.507 ± 0.63 |
| CFRHR | 0.428 ± 0.5 |
| CFYAA | -0.557 ± 0.56 |
| CFYNKRLCGRPFMLVWQNYS | 0.161 ± 0.56 |
| CGAELRIGGCSGPGGMFQTR | 0.031 ± 0.27 |
| CGEFGR | -0.682 ± 0.52 |
| CGGFRNMRVPVHLVPACRW | 0.334 ± 0.68 |
| CGIDKSDRIMLIKTVQLSVQ | 0.09 ± 0.68 |
| CGITGMATVLNELPKLKHML | 0.202 ± 0.62 |
| CGMVGWTSLPEQNRYPIPST | -0.511 ± 1.1 |
| CGNAWVKAIMW | -0.191 ± 0.66 |
| CGVLKTRIPLCFGVFEWNSL | 0.475 ± 0.72 |

| Substance | amyloid nucleation score |
| --- | --- |
| CGVMDGYLTAK | -0.619 ± 0.32 |
| CGWNFTVIHFSLDSVSHLLY | -0.568 ± 0.66 |
| CGWRQKLVMVETVTGFSLWG | 1.41 ± 0.88 |
| CHHSYCMITPLTVSTARNGW | 0.749 ± 0.35 |
| CICRRVSKTVLSLQANEAPC | -0.561 ± 0.41 |
| CICTRGMGSLSDCYELR | 0.689 ± 0.46 |
| CIFHL | 0.303 ± 0.65 |
| CIFPRCVYLYHSVWVDVVGC | -0.097 ± 0.61 |
| CIFSRNQGLIHRLEDNGH | 0.685 ± 0.33 |
| CIFTRKGIEVVCWLEGRMVP | 0.411 ± 1.2 |
| CILGWKYLDVVYDQRRLRCG | 0.939 ± 0.46 |
| CIMPMIGKYVGVFSSGSSIS | inactive |
| CIVNMNRGWISIDLLRD | 5.78 ± 0.073 |
| CIVVYLSLY | 3.32 ± 0.099 |
| CKDFRRAVVNEFPVSVSFYC | 0.922 ± 0.9 |
| CKHVETK | -0.535 ± 1.4 |
| CKQCRE | -0.01 ± 0.74 |
| CKQRKCLGRIYVCEHISQSL | 0.461 ± 0.67 |
| CLARGSKYWNRQNKVNFPYI | 1.51 ± 0.13 |
| CLCARML | 0.542 ± 0.67 |
| CLDVGHIFLGKVEWTGEPW | -0.375 ± 0.64 |
| CLFFLPQGLKRYE | 0.015 ± 0.53 |
| CLFLWVTSVL | 1.19 ± 0.57 |
| CLFNEALINANHLNNINWML | -0.361 ± 0.66 |

— the supplement of paper PMC12042874
